Reference: US20180142032A1 (Sanofi, published 2018)

T1: mLAMP1::histag (mouse, UniProt P11438 25-369)
T1 construct: also called mouse LAMP1 (25-369); Mouse LAMP1
T1 sequence: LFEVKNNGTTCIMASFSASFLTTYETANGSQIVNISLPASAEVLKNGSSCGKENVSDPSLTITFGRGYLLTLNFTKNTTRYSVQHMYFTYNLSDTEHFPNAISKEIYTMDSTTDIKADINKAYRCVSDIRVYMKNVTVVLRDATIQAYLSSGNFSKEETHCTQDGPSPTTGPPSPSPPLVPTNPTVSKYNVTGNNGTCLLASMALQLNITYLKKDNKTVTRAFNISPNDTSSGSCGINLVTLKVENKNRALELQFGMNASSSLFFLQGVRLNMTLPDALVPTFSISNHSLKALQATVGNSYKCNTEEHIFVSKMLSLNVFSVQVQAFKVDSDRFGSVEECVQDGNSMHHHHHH

T2: mLAMP1_L12_LAMP1_L34::histag (mouse/human hybrid)
T2 construct: mouse LAMP1 (25-189) and human LAMP1 (196-382), His tag; also called Loop1-2: mLAMP1 Loop3-4: hLAMP1
T2 chain: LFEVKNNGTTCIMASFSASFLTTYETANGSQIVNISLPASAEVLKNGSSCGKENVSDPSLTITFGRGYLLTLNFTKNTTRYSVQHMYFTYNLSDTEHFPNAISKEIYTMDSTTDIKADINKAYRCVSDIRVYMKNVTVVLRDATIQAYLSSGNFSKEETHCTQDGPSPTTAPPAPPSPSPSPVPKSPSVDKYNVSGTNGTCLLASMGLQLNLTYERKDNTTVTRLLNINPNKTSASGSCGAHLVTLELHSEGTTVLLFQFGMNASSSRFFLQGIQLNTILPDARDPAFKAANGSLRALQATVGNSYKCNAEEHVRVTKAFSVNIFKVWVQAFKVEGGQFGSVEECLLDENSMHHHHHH

T3: LAMP1_L123_mLAMP1_L4::histag (human/mouse hybrid, UniProt P11279 29-375)
T3 construct: human LAMP1 (29-309) and mouse LAMP1 (299-369), His tag; also called Loop1-3: hLAMP1 Loop4: mLAMP1
T3 chain: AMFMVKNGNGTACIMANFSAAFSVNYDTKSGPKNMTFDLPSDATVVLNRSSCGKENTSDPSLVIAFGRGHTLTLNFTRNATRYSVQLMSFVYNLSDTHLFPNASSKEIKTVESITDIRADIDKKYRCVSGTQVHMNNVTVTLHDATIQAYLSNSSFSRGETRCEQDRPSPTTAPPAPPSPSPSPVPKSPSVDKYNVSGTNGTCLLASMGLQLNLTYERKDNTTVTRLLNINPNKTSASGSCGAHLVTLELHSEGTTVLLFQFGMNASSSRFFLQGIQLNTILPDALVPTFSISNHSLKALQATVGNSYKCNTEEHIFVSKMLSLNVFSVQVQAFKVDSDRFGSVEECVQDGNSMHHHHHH

T4: LAMP1::histag (human, UniProt P11279 29-382)
T4 construct: extracellular domain without signal peptide, C-terminal 6 His tag, made in HEK293 cells; also called recombinant human LAMP1; human LAMP1 (29-382)
T4 sequence: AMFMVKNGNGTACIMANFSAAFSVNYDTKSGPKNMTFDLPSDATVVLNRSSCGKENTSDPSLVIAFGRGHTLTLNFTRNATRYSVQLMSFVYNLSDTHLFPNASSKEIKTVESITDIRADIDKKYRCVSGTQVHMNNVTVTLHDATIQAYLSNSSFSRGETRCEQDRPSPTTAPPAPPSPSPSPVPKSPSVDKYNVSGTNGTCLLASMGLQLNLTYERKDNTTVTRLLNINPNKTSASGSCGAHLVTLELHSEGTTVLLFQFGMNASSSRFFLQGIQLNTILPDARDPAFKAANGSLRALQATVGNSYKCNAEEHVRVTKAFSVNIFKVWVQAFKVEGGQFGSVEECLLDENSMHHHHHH

T5: human LAMP1 at the cell surface (human, UniProt P11279 29-417)
T5 construct: native on tumour cells (PDX, Colo205, SW480, LS174T) or from the cloned CDS NM_005561.3 in HEK293 and HCT116; signal peptide 1-28 left out; also called huLAMP1; full length human LAMP1
T5 sequence: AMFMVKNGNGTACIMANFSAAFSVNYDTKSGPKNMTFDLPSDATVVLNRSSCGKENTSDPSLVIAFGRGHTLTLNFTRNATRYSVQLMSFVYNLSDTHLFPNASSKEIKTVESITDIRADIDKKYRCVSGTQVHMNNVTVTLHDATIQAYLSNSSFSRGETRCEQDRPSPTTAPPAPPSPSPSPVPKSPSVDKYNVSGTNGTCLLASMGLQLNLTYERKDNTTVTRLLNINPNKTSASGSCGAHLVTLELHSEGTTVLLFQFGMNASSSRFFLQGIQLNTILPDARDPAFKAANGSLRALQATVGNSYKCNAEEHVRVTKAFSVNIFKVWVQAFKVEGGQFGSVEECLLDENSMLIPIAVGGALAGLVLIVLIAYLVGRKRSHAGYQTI


Legend:
[1] = target: T1, mLAMP1::histag; assay: ELISA
[2] = target: T2, mLAMP1_L12_LAMP1_L34::histag; assay: ELISA
[3] = target: T3, LAMP1_L123_mLAMP1_L4::histag; assay: ELISA
[4] = target: T4, LAMP1::histag; assay: ELISA with LAMP1
[5] = target: T6, LAMP1_mseq1_ΔGYQTI (mouse; human); assay: flow cytometry, transfected 293-F cells
T6 construct: on cells; also called pXL6012
T6 sequence (P11279 other isoform, or with tags, fused parts or gaps mutant): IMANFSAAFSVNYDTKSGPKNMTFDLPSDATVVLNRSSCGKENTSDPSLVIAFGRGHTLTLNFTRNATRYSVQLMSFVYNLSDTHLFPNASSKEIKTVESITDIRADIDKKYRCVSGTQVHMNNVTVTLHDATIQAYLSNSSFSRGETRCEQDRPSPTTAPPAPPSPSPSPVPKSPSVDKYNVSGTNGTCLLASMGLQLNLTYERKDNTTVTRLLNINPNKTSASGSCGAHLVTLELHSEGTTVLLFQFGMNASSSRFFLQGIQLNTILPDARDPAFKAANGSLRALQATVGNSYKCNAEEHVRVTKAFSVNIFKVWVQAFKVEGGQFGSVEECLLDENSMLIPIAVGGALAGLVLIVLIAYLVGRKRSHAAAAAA

[6] = target: T5, human LAMP1 at the cell surface; assay: flow cytometry, dissociated CR-IGR-034P colon PDX cells
Method: Advanced human primary colon tumor CR-IGR-034P was obtained from Patient-derived xenograft in mice. Tumor CR-IGR-034P was enzymatically dissociated using collagenase Type IV (Invitrogen; #17104-019) and deoxyribonuclease I (Invitrogen; #18047-019) for 1 h at 4° C. Cell viability was estimated by Viacount application using Guava® easyCyte™ 8HT Flow Cytometry System. […] 100 μL/well of goat anti-mouse IgG conjugated with Alexa647 (Invitrogen; # A2135) or goat anti-human IgG conjugated with Alexa488 (Invitrogen; # A11013) was added for 45 min at 4° C. and washed three times with PBS 1% BSA. The antibody binding was evaluated after centrifugation and resuspension of cells by adding 200 μl/well PBS 1% BSA and read using Guava® easyCyte™ 8HT Flow Cytometry System. EC50 values were estimated using BIOST@T-SPEED software.

binding result [1]	binding result [2]	EC50 [3] [nM]	EC50 [4] [nM]	mean fluorescence [5]	EC50 [6] [nM]	Binder
no binding	no binding	0.16	0.18	1030	–	MAb1 (antibody, mouse IgG2a, kappa, murine monoclonal IgG, kappa, from hybridoma; also called murine MAb1) heavy: QVQLQQSGAELVKPGASVKMSCKASGYIFTNYNIHWVKKSPGQGLEWIGAIYPGNGDAPYSQKFKDKATLTADKSSSTTYMQLSRLTSEDSAVYYCVRANWDVAFAYWGQGTLVSVSAAKTTAPSVYPLAPVCGDTTGSSVTLGCLVKGYFPEPVTLTWNSGSLSSGVHTFPAVLQSDLYTLSSSVTVTSSTWPSQSITCNVAHPASSTKVDKKIEPRGPTIKPCPPCKCPAPNLLGGPSVFIFPPKIKDVLMISLSPIVTCVVVDVSEDDPDVQISWFVNNVEVHTAQTQTHREDYNSTLRVVSALPIQHQDWMSGKEFKCKVNNKDLPAPIERTISKPKGSVRAPQVYVLPPPEEEMTKKQVTLTCMVTDFMPEDIYVEWTNNGKTELNYKNTEPVLDSDGSYFMYSKLRVEKKNWVERNSYSCSVVHEGLHNHHTTKSFSRTPGK light: DIQMTQSPPSLSASLGGKVTITCKASQDIDRYMAWYQDKPGKGPRLLIHDTSTLQPGIPSRFSGSGSGRDYSFSISNLEPEDIATYYCLQYDNLWTFGGGTKLEIKRADAAPTVSIFPPSSEQLTSGGASVVCFLNNFYPKDINVKWKIDGSERQNGVLNSWTDQDSKDSTYSMSSTLTLTKDEYERHNSYTCEATHKTSTSPIVKSFNRNEC
no binding	no binding	0.25	0.25	105	14	MAb2 (antibody, mouse IgG1, kappa, murine monoclonal IgG, kappa, from hybridoma; also called murine MAb2) heavy: QVQLQQSAAELARPGASVKMSCKASGYTFTSYTMHWVKQRPGQGLEWIGYFNPSSGYPEYNQKFKDKTTLTADKSSNTAFIQLNSLTSEDSAVYYCSRGYYYGSRGYALDFWGQGASVTVSSAKTTPPSVYPLAPGSAAQTNSMVTLGCLVKGYFPEPVTVTWNSGSLSSGVHTFPAVLQSDLYTLSSSVTVPSSTWPSETVTCNVAHPASSTKVDKKIVPRDCGCKPCICTVPEVSSVFIFPPKPKDVLTITLTPKVTCVVVDISKDDPEVQFSWFVDDVEVHTAQTQPREEQFNSTFRSVSELPIMHQDWLNGKEFKCRVNSAAFPAPIEKTISKTKGRPKAPQVYTIPPPKEQMAKDKVSLTCMITDFFPEDITVEWQWNGQPAENYKNTQPIMDTDGSYFVYSKLNVQKSNWEAGNTFTCSVLHEGLHNHHTEKSLSHSPGK light: NIVLTQSPVSLAVSLGQRATISCRASESVDINGNTFMHWYQQKPGQSPKLVIYAASNIESGVPARFSGSGSSTDFTFTIDPVEADDVATYYCQQNIEDPWTFGGGTKVEIKRADAAPTVSIFPPSSEQLTSGGASVVCFLNNFYPKDINVKWKIDGSERQNGVLNSWTDQDSKDSTYSMSSTLTLTKDEYERHNSYTCEATHKTSTSPIVKSFNRNEC
–	–	–	–	–	6	MAb3 (antibody, V domains shown, murine monoclonal IgG, kappa, from hybridoma; also called murine MAb3) VH: QIQLVQSGPELKKPGETVKISCKASGYIFTNYGMNWVKQAPGKGLKWMGWINTYTGESRYADDFKGRFALSLETSASTAYLQINNLENEDMATYFCAREDYYGNSPWFFDVWGAGTTVTVSS VL: DIQMTQTTSSLSASLGDRVTISCNASQGINKYLNWYQQKPDGTVKLLIYYTSTLHSGVPSRFSGSGSGTDYSLTINNLEPEDIATYYCQQYTKLPFTFGSGTKLEIK
